{"source": "paper PMC8188299", "biological_target": "Recombinant hACE2 protein fused with mFc, residues 19-740 (human) (UniProt Q9BYF1)", "sequence (Q9BYF1 19-740)": "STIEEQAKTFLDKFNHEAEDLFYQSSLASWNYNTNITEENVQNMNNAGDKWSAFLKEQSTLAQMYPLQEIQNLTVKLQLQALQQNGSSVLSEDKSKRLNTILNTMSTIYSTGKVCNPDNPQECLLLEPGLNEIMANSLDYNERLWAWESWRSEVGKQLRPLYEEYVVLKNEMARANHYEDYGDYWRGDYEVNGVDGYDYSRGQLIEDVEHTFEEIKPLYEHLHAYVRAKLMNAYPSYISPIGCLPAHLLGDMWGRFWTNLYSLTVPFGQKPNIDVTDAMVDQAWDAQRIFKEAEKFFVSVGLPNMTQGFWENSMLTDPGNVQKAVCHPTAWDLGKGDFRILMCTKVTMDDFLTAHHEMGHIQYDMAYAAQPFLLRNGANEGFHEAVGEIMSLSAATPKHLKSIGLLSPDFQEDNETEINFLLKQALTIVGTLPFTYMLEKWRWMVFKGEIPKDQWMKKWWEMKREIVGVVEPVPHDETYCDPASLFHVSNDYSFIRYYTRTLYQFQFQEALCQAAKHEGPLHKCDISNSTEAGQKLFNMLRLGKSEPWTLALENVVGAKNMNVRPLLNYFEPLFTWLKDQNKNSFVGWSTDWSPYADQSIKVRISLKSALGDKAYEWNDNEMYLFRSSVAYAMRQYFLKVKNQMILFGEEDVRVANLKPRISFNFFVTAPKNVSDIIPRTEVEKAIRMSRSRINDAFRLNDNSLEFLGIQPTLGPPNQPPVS", "assay": "SPR"}
{"substance": "Recombinant RsYN04 RBD protein, residues 309-527 (domain or fragment)", "values": [{"measurement": "Kd", "value": 15.9, "unit": "µM"}]}
